No end group written: not given here.
Experiments:
TF-FVIIa = TF-FVIIa (Homo sapiens, UniProt P08709); test: FX Activation Assay (activation of FX by TF-FVIIa); assay type: biochemical
Protocol: FX Activation Assay—Activation of FX by TF-FVIIa was monitored at room temperature as a function of peptide concentration. Each assay sample contained 100 μl of 460 pM relipidated TF1-243 (TFPC) (Kelley, R. F. et al. (1997) Blood 89:3219-3227) and 30 pM FVIIa in HBS/Ca buffer (20 mM HEPES, pH 7.4, 5 mM CaCl2, 150 mM NaCl, 0.1% PEG 8000); after 20 min, 25 μl of peptide diluted in HBS/Ca Buffer was added. Following a 30 min incubation the reaction was initiated by the addition of 25 μl of 1 μM FX in HBS/Ca (Note: this yields a final concentration of 306 pM TFPC, 20 pM FVIIa, and 166 nM FX). For kinetic analysis, the final concentration of FX was varied from between 20 and 500 nM. Aliquots of 25 μl were removed at 1, 3, 5, 7 and 9 min and quenched in 25 μl of 50 mM EDTA. The FXa generated in each aliquot could be measured by the addition of 100 μl of 250 nM Spectrozyme fXa (American Diagnostica), 50 mM Tris, pH 8, 50 mM NaCl, 0.0025% Triton X-100. The rate of FXa generated at each peptide concentration was proportional to the initial slope of the absorbance at 405 nm vs. time. Sigmoidal curves were fit to a four parameter equation by nonlinear regression analysis (Marquardt, J. Soc. Indust. Appl. Math. 11:431-441 (1963); the concentration of each peptide required to give a half-maximal signal in the assay was calculated from the curves and is referred to as the IC50 value. […]

[1] = test system: TF dependent extrinsic clotting pathway in human plasma; test: Prothrombin time (PT) clotting assay
Protocol: Clotting Assays—Prothrombin time (PT) and activated partial thromboplastin time (APTT) clotting time assays were performed in citrated pooled normal plasmas (human or various animal species). Clotting times were determined using an ACL 300 Automated Coagulation Analyzer (Coulter Corp., Miami, Fla.) and commercially available reagents as follows.
For the PT assay, aqueous solutions of inhibitor at various concentrations were added to citrated pooled normal plasma in a ratio of 1 part inhibitor to 9 parts plasma. Following a 30 min incubation, these mixtures were added to sample cups of an ACL 300 Analyzer. Innovin® (Dade International Inc., Miami, Fla.), a mixture of human relipidated tissue factor and Ca^2+ ions was added to the reagent cup. Precise volumes of sample and Innovin® (50 μl sample, 100 μl Innovin) were automatically transferred to cells of an acrylic rotor pre-equilibrated to 37° C. Following a 2 min incubation period, coagulation was initiated by mixing the two components by centrifugation. Coagulation was monitored optically and clotting time was reported in seconds. In this system, the clotting time of control plasmas (plasma plus inhibitor diluent) was typically 8 to 10 seconds. The fold prolongation is the clotting time of the inhibitor relative to the clotting time of the control.
Clotting Assays—The PT clotting assay was carried out as described in Example 1.

TF-FVIIa, sequence (P08709 61-212 limits assumed): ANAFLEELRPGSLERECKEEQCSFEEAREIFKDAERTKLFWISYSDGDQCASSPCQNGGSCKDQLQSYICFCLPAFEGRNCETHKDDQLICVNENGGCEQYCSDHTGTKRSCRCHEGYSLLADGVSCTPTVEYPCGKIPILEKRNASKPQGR
TF-FVIIa, sequence (P08709 213-466 limits assumed): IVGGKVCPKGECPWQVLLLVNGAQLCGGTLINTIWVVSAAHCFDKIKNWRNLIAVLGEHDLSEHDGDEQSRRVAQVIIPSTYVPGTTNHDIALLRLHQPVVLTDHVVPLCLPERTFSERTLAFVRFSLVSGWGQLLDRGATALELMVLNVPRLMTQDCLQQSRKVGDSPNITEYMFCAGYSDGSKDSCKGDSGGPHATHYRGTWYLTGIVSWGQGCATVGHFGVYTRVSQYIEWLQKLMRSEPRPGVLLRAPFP
TF-FVIIa, sequence (P13726 33-275 partner limits assumed): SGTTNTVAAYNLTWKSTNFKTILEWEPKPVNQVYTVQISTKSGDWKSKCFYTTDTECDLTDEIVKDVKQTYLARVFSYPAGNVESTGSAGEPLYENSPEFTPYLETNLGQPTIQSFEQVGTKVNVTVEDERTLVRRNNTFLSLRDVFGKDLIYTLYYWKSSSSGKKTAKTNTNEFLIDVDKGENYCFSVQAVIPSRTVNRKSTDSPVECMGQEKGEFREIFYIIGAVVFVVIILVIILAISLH

- ability to inhibit FX activation by TF-FVIIa (TF-FVIIa): comparable to the peptide TF151
Substance: TF151-Fc: peptide sequence TF151 with a GGGSSG linker fused to the Fc portion of human IgG1, expressed in insect cells; forms a dimer (SQAQRRAVGALCDNPRIDRWYCQFVEGGGGSSG-{human IgG1 Fc}; cysteine pairing not given here; also: dimer)
- prolongation of the prothrombin time (potency) [1]: comparable to peptide TF151

Reference: patent US7084109B2, “FVIIa antagonists” (Genentech, Inc., priority 1999, dated 2006)
